In paper PMC10901774, “Mirror-image ligand discovery enabled by single-shot fast-flow synthesis of D-proteins” (Nature Communications, 2024):

Details: pH 7.4
Description: For protein targets with no known binding partners and no available activity assays (ERG and IRAK2), we recorded circular dichroism (CD) spectra and compared them to recombinantly derived material.
ERG and IRAK2 Circular Dichroism
Before analysis, all proteins were exchanged into CD buffer (10 mM KP i, 5% glycerol v/v, pH 7.4).
Fast protein liquid chromatography (FPLC) purification was performed using GE Life Sciences
columns on an ÄKTA Pure FPLC system. The ÄKTA Pure, FPLC columns, and all buffers were
stored and subsequently used in a cold room maintained at 4 °C. HiTrap™ Desalting 5 mL: Before
desalting, the column was equilibrated with 20 mL of the CD buffer at 2 mL/min or until the
conductance reading from the ÄKTA Pure stabilizes, whichever is the greater volume. Up to 1.5
mL of sample was loaded into the column using a syringe fitted with a compatible male-end screw
tip, and then the loaded column was attached to the ÄKTA Pure. An isocratic flow of buffer (2 CV) […]
protein solution was determined with Method 1.6.1. […]
mg/mL with additions of CD buffer. All CD spectra were recorded on an AVIV Model 420 Circular […]
Before all readings, cuvettes were cleaned with Hellmanex™ 3 concentrate according to
manufacturer directions. Far circular dichroism spectra were recorded as the average of three […]
with 2 nm bandwidth and 8 second averaging time. Spectra were recorded between 0 and 110 […]

B1: Recombinant ERG: ERG (115-208) recombinantly expressed in E. coli (protein, UniProt P11308 115-208, looked up, fragment)
chain: PPNMTTNERRVIVPADPTLWSTDHVRQWLEWAVKEYGLPDVNILLFQNIDGKELCKMTKDDFQRLTPSYNADILLSHLHYLRETPLPHLTSDDV
  TM (melting temperature), ERG: 71.7±0.8 ºC
